Laboratory results reported in patent US20240317834A1, “COMPOSITIONS AND METHODS FOR NEUROLOGICAL DISEASES” (CODA BIOTHERAPEUTICS, INC., priority 2020, published 2024).
Where a chain is given by its changes, count along the chain named. In names and notes the source's numbering stands.

System: Lenti-X 293T cells
Experiment: YFP fluorescence quenching anion reporter plate reader assay of engineered receptors stimulated with acetylcholine or a non-native ligand
Format: cell-based
Conditions: for percent quench of YFP fluorescence, 10 uM ach: acetylcholine 10 uM; for percent quench of YFP fluorescence, 100 uM ach: acetylcholine 100 uM; for percent quench of YFP fluorescence, 1 mM ach: acetylcholine 1 mM; for percent quench of YFP fluorescence, 3 mM ach: acetylcholine 3 mM
Summary of the method: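 YFP quench was followed for about 1 min 43 s after ligand delivered in iodide-based ECS, pH 7.2. Values are end-of-read fluorescence (last 10 s) divided by the pre-ligand baseline (15 s). Cells were LX293T, transfected with receptor DNA a day before the assay.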

B1: CODA405: engineered chimeric LGIC receptor, Y210V in SEQ ID NO: 33 (protein)
chain: MRCSPGGVWLALAASLLHVSLQGEFQRKLYKELVKNYNPLERPVANDSQPLTVYFSLSLLQIMDVDEKNQVLTTNIWLQMSWTDHYLQWNVSEYPGVKTVRFPDGQIWKPDILLYNSADERFDATFHTNVLVNSSGHCQYLPPGIFKSSCPMDLKNFPMDVQTCKLKFGSWSYGGWSLDLQMQEADISGYIPNGEWDLVGIPGKRSERFVECCKEPYPDVTFTVTMRRRMGYYLIQMYIPSLLIVILSWISFWINMDAAPARVGLGITTVLTMTTQSSGSRASLPKVSYVKAIDIWMAVCLLFVFSALLEYAAVNFVSRQHKELLRFRRKRRHHKSPMLNLFQEDEAGEGRFNFSAYGMGPACLQAKDGISVKGANNSNTTNPPPAPSKSPEEMRKLFIQRAKKIDKISRIGFPMAFLIFNMFYWIIYKIVRREDVHNQ
modifications: synthetic sequence of chimeric LGIC
- YFP fluorescence quenching using CNL001 (1 nM CNL001, first column): −16.246%
- YFP fluorescence quenching using CNL001 (1 nM CNL001, second column): −4.217%
- YFP fluorescence quenching using TC-5619/Bradanicline (3 nM brd): 9.92%
- YFP fluorescence quenching using Varenicline (3 nM var, first column): 7.317
- YFP fluorescence quenching using Varenicline (3 nM var, second column): 7.643
- YFP fluorescence quenching using CNL001 (10 nM CNL001, first column): −6.142%
- YFP fluorescence quenching using CNL001 (10 nM CNL001, second column): −10.003%
- YFP fluorescence quenching using TC-5619/Bradanicline (30 nM brd): 4.37%
- YFP fluorescence quenching using Facinicline (30 nM fac): −26.25
- YFP fluorescence quenching using Varenicline (30 nM var, first column): 9.457
- YFP fluorescence quenching using Varenicline (30 nM var, second column): 9.134
- YFP fluorescence quenching using CNL001 (50 nM CNL001, first column): −11.054%
- YFP fluorescence quenching using CNL001 (50 nM CNL001, second column): −10.06%
- YFP fluorescence quenching using ABT-126 (50 nM abt): −2.9%
- YFP fluorescence quenching using CNL001 (100 nM CNL001, first column): −3.832%
- YFP fluorescence quenching using CNL001 (100 nM CNL001, second column): −3.784%
- YFP fluorescence quenching using CNL002 (100 nM CNL002): −14.3%
- YFP fluorescence quenching using ABT-126 (100 nM abt): −2.06%
- YFP fluorescence quenching using AZD-0328 (100 nM azd0328): −8.13%
- YFP fluorescence quenching using ABT-126 (300 nM abt): −0.19%
- YFP fluorescence quenching using AZD-0328 (300 nM azd0328): −3.35%
- YFP fluorescence quenching using TC-5619/Bradanicline (300 nM brd): 59%
- YFP fluorescence quenching using Facinicline (300 nM fac): −23.52
- YFP fluorescence quenching using Varenicline (300 nM var, first column): 15.503
- YFP fluorescence quenching using Varenicline (300 nM var, second column): 11.954
- YFP fluorescence quenching using Varenicline (500 nM var, first column): 13.427
- YFP fluorescence quenching using Varenicline (500 nM var, second column): 10.784
- YFP fluorescence quenching using CNL001 (1 uM CNL001, first column): 1.129%
- YFP fluorescence quenching using CNL001 (1 uM CNL001, second column): 7.1%
- YFP fluorescence quenching using CNL002 (1 uM CNL002): −7.56%
- YFP fluorescence quenching using ABT-126 (1 uM abt): −3.64%
- YFP fluorescence quenching using TC-6987 (1 uM tc6987): −22.63
- YFP fluorescence quenching using Varenicline (1 uM var, first column): 9.032
- YFP fluorescence quenching using Varenicline (1 uM var, second column): 11.591
- YFP fluorescence quenching using TC-6987 (10 uM tc6987): −23.03
- YFP fluorescence quenching using CNL002 (30 uM CNL002): −2.02%
- YFP fluorescence quenching using AZD-0328 (30 uM azd0328): −2.86%
- YFP fluorescence quenching using Facinicline (30 uM fac): 0.83
- YFP fluorescence quenching using TC-6987 (500 uM tc6987): −40.88
- percent quench of YFP fluorescence, 10 uM ach: −6.31%
- percent quench of YFP fluorescence, 100 uM ach: −14.48%
- percent quench of YFP fluorescence, 1 mM ach: −2.82%
- percent quench of YFP fluorescence, 3 mM ach: 1.06%

B2: CODA409: engineered chimeric LGIC receptor, Y210W in SEQ ID NO: 33 (protein)
chain: B1 chain with V210W
modifications: synthetic sequence of chimeric LGIC
- YFP fluorescence quenching using CNL001 (1 nM CNL001, first column): −8.914%
- YFP fluorescence quenching using CNL001 (1 nM CNL001, second column): −14.319%
- YFP fluorescence quenching using TC-5619/Bradanicline (1 nM brd): −13.45%
- YFP fluorescence quenching using TC-5619/Bradanicline (3 nM brd): −0.64%
- YFP fluorescence quenching using Varenicline (3 nM var, first column): 7.776
- YFP fluorescence quenching using Varenicline (3 nM var, second column): −2.964
- YFP fluorescence quenching using CNL001 (10 nM CNL001, first column): −1.444%
- YFP fluorescence quenching using CNL001 (10 nM CNL001, second column): 4.393%
- YFP fluorescence quenching using TC-5619/Bradanicline (10 nM brd): 37.3%
- YFP fluorescence quenching using TC-5619/Bradanicline (30 nM brd): 76.36%
- YFP fluorescence quenching using Facinicline (30 nM fac): −10.93
- YFP fluorescence quenching using Varenicline (30 nM var, first column): −5.568
- YFP fluorescence quenching using Varenicline (30 nM var, second column): 3.024
- YFP fluorescence quenching using CNL001 (50 nM CNL001, first column): 11.897%
- YFP fluorescence quenching using CNL001 (50 nM CNL001, second column): 11.434%
- YFP fluorescence quenching using ABT-126 (50 nM abt): 8.23%
- YFP fluorescence quenching using CNL001 (100 nM CNL001, first column): 12.719%
- YFP fluorescence quenching using CNL001 (100 nM CNL001, second column): 16.053%
- YFP fluorescence quenching using CNL002 (100 nM CNL002): −14.92%
- YFP fluorescence quenching using ABT-126 (100 nM abt): 55.53%
- YFP fluorescence quenching using AZD-0328 (100 nM azd0328): −6.57%
- YFP fluorescence quenching using TC-5619/Bradanicline (100 nM brd): 72.72%
- YFP fluorescence quenching using ABT-126 (300 nM abt): 74.82%
- YFP fluorescence quenching using AZD-0328 (300 nM azd0328): −4.84%
- YFP fluorescence quenching using TC-5619/Bradanicline (300 nM brd): 75.47%
- YFP fluorescence quenching using Facinicline (300 nM fac): −5.82
- YFP fluorescence quenching using Varenicline (300 nM var, first column): 2.815
- YFP fluorescence quenching using Varenicline (300 nM var, second column): 3.06
- YFP fluorescence quenching using ABT-126 (500 nM abt): 77.39%
- YFP fluorescence quenching using Varenicline (500 nM var, first column): 1.766
- YFP fluorescence quenching using Varenicline (500 nM var, second column): 2.819
- YFP fluorescence quenching using CNL001 (1 uM CNL001, first column): 14.077%
- YFP fluorescence quenching using CNL001 (1 uM CNL001, second column): 15.495%
- YFP fluorescence quenching using CNL002 (1 uM CNL002): −0.85%
- YFP fluorescence quenching using ABT-126 (1 uM abt): 77.77%
- YFP fluorescence quenching using TC-5619/Bradanicline (1 uM brd): 78.73%
- YFP fluorescence quenching using TC-6987 (1 uM tc6987): 62.82
- YFP fluorescence quenching using Varenicline (1 uM var, first column): 1.844
- YFP fluorescence quenching using Varenicline (1 uM var, second column): −4.059
- YFP fluorescence quenching using ABT-126 (3 uM abt): 69.33%
- YFP fluorescence quenching using ABT-126 (10 uM abt): 74.79%
- YFP fluorescence quenching using Facinicline (10 uM fac): 60.97
- YFP fluorescence quenching using TC-6987 (10 uM tc6987): 78.66
- YFP fluorescence quenching using CNL002 (30 uM CNL002): 29.62%
- YFP fluorescence quenching using ABT-126 (30 uM abt): 75.61%
- YFP fluorescence quenching using AZD-0328 (30 uM azd0328): 81.64%
- YFP fluorescence quenching using Facinicline (30 uM fac): 57.77
- YFP fluorescence quenching using ABT-126 (50 uM abt): 75.72%
- YFP fluorescence quenching using ABT-126 (100 uM abt): 78.52%
- YFP fluorescence quenching using TC-6987 (500 uM tc6987): 70.35
- percent quench of YFP fluorescence, 10 uM ach: −5.43%
- percent quench of YFP fluorescence, 100 uM ach: 17.14%
- percent quench of YFP fluorescence, 1 mM ach: 78.84%
- percent quench of YFP fluorescence, 3 mM ach: 78.55%

B3: CODA407: engineered chimeric LGIC receptor, Y210F in SEQ ID NO: 33 (protein)
chain: B1 chain with V210F
modifications: synthetic sequence of chimeric LGIC
- YFP fluorescence quenching using CNL001 (1 nM CNL001, first column): −10.845%
- YFP fluorescence quenching using CNL001 (1 nM CNL001, second column): −2.629%
- YFP fluorescence quenching using TC-5619/Bradanicline (3 nM brd): −0.53%
- YFP fluorescence quenching using Varenicline (3 nM var, first column): 2.441
- YFP fluorescence quenching using Varenicline (3 nM var, second column): 7.326
- YFP fluorescence quenching using CNL001 (10 nM CNL001, first column): 4.66%
- YFP fluorescence quenching using CNL001 (10 nM CNL001, second column): 12.246%
- YFP fluorescence quenching using TC-5619/Bradanicline (30 nM brd): 8.71%
- YFP fluorescence quenching using Facinicline (30 nM fac): −21.94
- YFP fluorescence quenching using Varenicline (30 nM var, first column): 1.275
- YFP fluorescence quenching using Varenicline (30 nM var, second column): 12.96
- YFP fluorescence quenching using CNL001 (50 nM CNL001, first column): 29.307%
- YFP fluorescence quenching using CNL001 (50 nM CNL001, second column): 41.78%
- YFP fluorescence quenching using ABT-126 (50 nM abt): −13.07%
- YFP fluorescence quenching using CNL001 (100 nM CNL001, first column): 50.654%
- YFP fluorescence quenching using CNL001 (100 nM CNL001, second column): 62.054%
- YFP fluorescence quenching using CNL002 (100 nM CNL002): −12.47%
- YFP fluorescence quenching using ABT-126 (100 nM abt): 0.1%
- YFP fluorescence quenching using AZD-0328 (100 nM azd0328): 0.85%
- YFP fluorescence quenching using ABT-126 (300 nM abt): 5.97%
- YFP fluorescence quenching using AZD-0328 (300 nM azd0328): 1.25%
- YFP fluorescence quenching using TC-5619/Bradanicline (300 nM brd): 76.26%
- YFP fluorescence quenching using Facinicline (300 nM fac): −22.46
- YFP fluorescence quenching using Varenicline (300 nM var, first column): 13.119
- YFP fluorescence quenching using Varenicline (300 nM var, second column): 2.355
- YFP fluorescence quenching using Varenicline (500 nM var, first column): 11.539
- YFP fluorescence quenching using Varenicline (500 nM var, second column): 6.571
- YFP fluorescence quenching using CNL001 (1 uM CNL001, first column): 81.742%
- YFP fluorescence quenching using CNL001 (1 uM CNL001, second column): 81.304%
- YFP fluorescence quenching using CNL002 (1 uM CNL002): −3.93%
- YFP fluorescence quenching using ABT-126 (1 uM abt): 50.23%
- YFP fluorescence quenching using TC-6987 (1 uM tc6987): −15.22
- YFP fluorescence quenching using Varenicline (1 uM var, first column): 8.397
- YFP fluorescence quenching using Varenicline (1 uM var, second column): 7.309
- YFP fluorescence quenching using TC-6987 (10 uM tc6987): −19.89
- YFP fluorescence quenching using CNL002 (30 uM CNL002): 80.97%
- YFP fluorescence quenching using AZD-0328 (30 uM azd0328): 82.08%
- YFP fluorescence quenching using Facinicline (30 uM fac): 82.63
- YFP fluorescence quenching using TC-6987 (500 uM tc6987): −33.32
- percent quench of YFP fluorescence, 10 uM ach: −3.75%
- percent quench of YFP fluorescence, 100 uM ach: −1.6%
- percent quench of YFP fluorescence, 1 mM ach: 71.65%
- percent quench of YFP fluorescence, 3 mM ach: 79.09%
